According to patent publication US20220288124A1:

B1: mAb 6G11 (mouse hybridoma antibody) (antibody, V domains shown)
VH: QVQLQQPGSELVRPGASVKLSCKASGYTFTSCWMHWVKQRPGQGLEWIGNIYPGYGNTNYDEKFKNKATLTVDTSSSTAYMQLSGLTSEDSAVYYCTRGSYLYAMDYWGQGTSVTVSS
VL: DIQMNQSPSSLSASLGDTITITCHASQNINVWLSWYQQKPGNIPKLLIYKASNLHTGVPSRFSGSGSGTGFTLTISSLQPEDIATYYCQQGQSYPWTFGGGTKLEIKR
B2: mAb 12D7 (mouse hybridoma antibody) (antibody, V domains shown)
VH: QVQLQQPGSELVRPGASVKLSCKASGYTFTSYWMHWVKQRLGQGLEWIGNIYPGSGSTNYDEKFKSKGTLTVDTSSSTAYMHLSSLTSEDSAVYYCTRGDYDWVFAYWGQGTLVTVSA
VL: DIVMTQSQKFMSTSVGDRVSVTCKASQNVGTNVAWYQQKPGQSPKALIYSASYRYSGVPDRFTGSGSGTDFTLTISNVQSEDLAEYFCQQYNSYPLTFGAGTKLELKR

Experiments:
[1] = target: hGPC3-C fragment (AA359-580) (human) (UniProt P51654); test: flow cytometry, intracellular staining of 293 cells transfected with hGPC3-C; gate set on untransfected cells
Chain of hGPC3-C fragment (AA359-580) (human) (P51654 359-580 limits assumed, form in doubt): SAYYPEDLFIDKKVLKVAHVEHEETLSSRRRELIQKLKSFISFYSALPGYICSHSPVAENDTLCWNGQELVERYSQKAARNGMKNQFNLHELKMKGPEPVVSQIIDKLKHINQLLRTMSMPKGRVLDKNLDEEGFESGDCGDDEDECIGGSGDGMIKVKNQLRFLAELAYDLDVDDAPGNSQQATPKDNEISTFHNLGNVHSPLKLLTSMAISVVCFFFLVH

[2] = target: hGPC3-C fragment (AA359-580) (human) (UniProt P51654); test: flow cytometry, intracellular staining of 293T cells transfected with hGPC3-C; gate set on untransfected cells

Binder | % of cells in the positive gate [1] [%] | % of events in gate M1 [2] [%]
B1 | 0.75 | 4.03
B2 | 0.92 | 0.47
